# Measured values taken from US20140206609A1 (Sanofi, published 2014).
# *1 amine or outer side, *2 acyl side, *3 side chain or, on linkers, in order; H or OH if unused. Where no end group is shown, it is not given here. Side-chain parts run from the residue outwards. [ ]: non-standard residue; d: D form. The star is where a group is joined. γGlu = O=C(O)[C@H](CCC(=O)[*:2])N[*:1]; Palmitoyl = CCCCCCCCCCCCCCCC(=O)*; Aib = CC(C)(N)C(=O)O
# T1: human GIP receptor (human, UniProt P48546 22-466)
# T1 sequence (looked up): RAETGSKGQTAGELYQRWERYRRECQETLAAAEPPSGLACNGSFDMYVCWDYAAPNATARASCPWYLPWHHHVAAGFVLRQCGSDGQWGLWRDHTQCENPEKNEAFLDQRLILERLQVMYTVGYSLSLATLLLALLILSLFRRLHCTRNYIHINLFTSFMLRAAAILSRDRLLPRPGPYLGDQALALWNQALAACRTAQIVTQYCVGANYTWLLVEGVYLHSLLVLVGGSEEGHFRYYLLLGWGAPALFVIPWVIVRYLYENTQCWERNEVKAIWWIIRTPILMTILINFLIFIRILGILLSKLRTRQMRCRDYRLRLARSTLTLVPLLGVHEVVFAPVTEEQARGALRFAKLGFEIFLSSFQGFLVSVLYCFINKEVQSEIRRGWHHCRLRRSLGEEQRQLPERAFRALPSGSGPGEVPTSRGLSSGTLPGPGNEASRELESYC
# Legend:
# Assay in all cases: cell-based or functional assay
# human GIP receptor = biological target: T1, human GIP receptor
# human GLP-1 receptor = human GLP-1 receptor (human, UniProt P43220 24-463)
# human glucagon receptor = human glucagon receptor (human, UniProt P47871 26-477)
# Sequence of human glucagon receptor (P47871 26-477): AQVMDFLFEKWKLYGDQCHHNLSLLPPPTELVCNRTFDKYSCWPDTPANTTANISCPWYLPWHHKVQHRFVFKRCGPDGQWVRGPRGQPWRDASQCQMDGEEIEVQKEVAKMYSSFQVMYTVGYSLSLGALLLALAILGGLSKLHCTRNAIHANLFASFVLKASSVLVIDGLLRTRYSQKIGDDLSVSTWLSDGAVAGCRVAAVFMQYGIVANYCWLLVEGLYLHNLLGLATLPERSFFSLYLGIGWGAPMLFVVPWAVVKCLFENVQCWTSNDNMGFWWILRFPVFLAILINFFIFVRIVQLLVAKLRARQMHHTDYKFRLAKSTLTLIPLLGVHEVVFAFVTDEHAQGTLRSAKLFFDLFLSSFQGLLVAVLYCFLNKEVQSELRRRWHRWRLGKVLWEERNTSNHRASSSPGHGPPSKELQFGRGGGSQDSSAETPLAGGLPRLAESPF
Binder,EC50 hGIP R [pM] (human GIP receptor),EC50 hGLP-1 R [pM] (human GLP-1 receptor),EC50 hGLUC R [pM] (human glucagon receptor)
Y[Aib]EGTFTSDLSIQK([γGlu-Palmitoyl])EKRAAQDFIEWLKAGGPSSGAPPPS-NH2 (N-terminus assumed; SMILES CCCCCCCCCCCCCCCC(=O)N[C@@H](CCC(=O)NCCCC[C@H](NC(=O)[C@H](CCC(N)=O)NC(=O)[C@@H](NC(=O)[C@H](CO)NC(=O)[C@H](CC(C)C)NC(=O)[C@H](CC(=O)O)NC(=O)[C@H](CO)NC(=O)[C@@H](NC(=O)[C@H](Cc1ccccc1)NC(=O)[C@@H](NC(=O)CNC(=O)[C@H](CCC(=O)O)NC(=O)C(C)(C)NC(=O)[C@@H](N)Cc1ccc(O)cc1)[C@@H](C)O)[C@@H](C)O)[C@@H](C)CC)C(=O)N[C@@H](CCC(=O)O)C(=O)N[C@@H](CCCCN)C(=O)N[C@@H](CCCNC(=N)N)C(=O)N[C@@H](C)C(=O)N[C@@H](C)C(=O)N[C@@H](CCC(N)=O)C(=O)N[C@@H](CC(=O)O)C(=O)N[C@@H](Cc1ccccc1)C(=O)N[C@H](C(=O)N[C@@H](CCC(=O)O)C(=O)N[C@@H](Cc1c[nH]c2ccccc12)C(=O)N[C@@H](CC(C)C)C(=O)N[C@@H](CCCCN)C(=O)N[C@@H](C)C(=O)NCC(=O)NCC(=O)N1CCC[C@H]1C(=O)N[C@@H](CO)C(=O)N[C@@H](CO)C(=O)NCC(=O)N[C@@H](C)C(=O)N1CCC[C@H]1C(=O)N1CCC[C@H]1C(=O)N1CCC[C@H]1C(=O)N[C@@H](CO)C(N)=O)[C@@H](C)CC)C(=O)O) [SEQ ID NO: 33],9.1,6.4,12900
Y[Aib]QGTFTSDLSIQK([γGlu-Palmitoyl])DKRAAQDFIEWLKAGGPSSGAPPPS-NH2 (N-terminus assumed; SMILES CCCCCCCCCCCCCCCC(=O)N[C@@H](CCC(=O)NCCCC[C@H](NC(=O)[C@H](CCC(N)=O)NC(=O)[C@@H](NC(=O)[C@H](CO)NC(=O)[C@H](CC(C)C)NC(=O)[C@H](CC(=O)O)NC(=O)[C@H](CO)NC(=O)[C@@H](NC(=O)[C@H](Cc1ccccc1)NC(=O)[C@@H](NC(=O)CNC(=O)[C@H](CCC(N)=O)NC(=O)C(C)(C)NC(=O)[C@@H](N)Cc1ccc(O)cc1)[C@@H](C)O)[C@@H](C)O)[C@@H](C)CC)C(=O)N[C@@H](CC(=O)O)C(=O)N[C@@H](CCCCN)C(=O)N[C@@H](CCCNC(=N)N)C(=O)N[C@@H](C)C(=O)N[C@@H](C)C(=O)N[C@@H](CCC(N)=O)C(=O)N[C@@H](CC(=O)O)C(=O)N[C@@H](Cc1ccccc1)C(=O)N[C@H](C(=O)N[C@@H](CCC(=O)O)C(=O)N[C@@H](Cc1c[nH]c2ccccc12)C(=O)N[C@@H](CC(C)C)C(=O)N[C@@H](CCCCN)C(=O)N[C@@H](C)C(=O)NCC(=O)NCC(=O)N1CCC[C@H]1C(=O)N[C@@H](CO)C(=O)N[C@@H](CO)C(=O)NCC(=O)N[C@@H](C)C(=O)N1CCC[C@H]1C(=O)N1CCC[C@H]1C(=O)N1CCC[C@H]1C(=O)N[C@@H](CO)C(N)=O)[C@@H](C)CC)C(=O)O) [SEQ ID NO: 28],10.9,3.2,9.9
Y[Aib]QGTFTSDLSIQK([γGlu-Palmitoyl])DSRAAQEFIEWLKAGGPSSGAPPPS-NH2 (N-terminus assumed; SMILES CCCCCCCCCCCCCCCC(=O)N[C@@H](CCC(=O)NCCCC[C@H](NC(=O)[C@H](CCC(N)=O)NC(=O)[C@@H](NC(=O)[C@H](CO)NC(=O)[C@H](CC(C)C)NC(=O)[C@H](CC(=O)O)NC(=O)[C@H](CO)NC(=O)[C@@H](NC(=O)[C@H](Cc1ccccc1)NC(=O)[C@@H](NC(=O)CNC(=O)[C@H](CCC(N)=O)NC(=O)C(C)(C)NC(=O)[C@@H](N)Cc1ccc(O)cc1)[C@@H](C)O)[C@@H](C)O)[C@@H](C)CC)C(=O)N[C@@H](CC(=O)O)C(=O)N[C@@H](CO)C(=O)N[C@@H](CCCNC(=N)N)C(=O)N[C@@H](C)C(=O)N[C@@H](C)C(=O)N[C@@H](CCC(N)=O)C(=O)N[C@@H](CCC(=O)O)C(=O)N[C@@H](Cc1ccccc1)C(=O)N[C@H](C(=O)N[C@@H](CCC(=O)O)C(=O)N[C@@H](Cc1c[nH]c2ccccc12)C(=O)N[C@@H](CC(C)C)C(=O)N[C@@H](CCCCN)C(=O)N[C@@H](C)C(=O)NCC(=O)NCC(=O)N1CCC[C@H]1C(=O)N[C@@H](CO)C(=O)N[C@@H](CO)C(=O)NCC(=O)N[C@@H](C)C(=O)N1CCC[C@H]1C(=O)N1CCC[C@H]1C(=O)N1CCC[C@H]1C(=O)N[C@@H](CO)C(N)=O)[C@@H](C)CC)C(=O)O) [SEQ ID NO: 29],127,7,46.8
Y[Aib]EGTFTSDLSIQK([γGlu-Palmitoyl])DKRAAQDFIEWLKAGGPSSGAPPPS-NH2 (N-terminus assumed; SMILES CCCCCCCCCCCCCCCC(=O)N[C@@H](CCC(=O)NCCCC[C@H](NC(=O)[C@H](CCC(N)=O)NC(=O)[C@@H](NC(=O)[C@H](CO)NC(=O)[C@H](CC(C)C)NC(=O)[C@H](CC(=O)O)NC(=O)[C@H](CO)NC(=O)[C@@H](NC(=O)[C@H](Cc1ccccc1)NC(=O)[C@@H](NC(=O)CNC(=O)[C@H](CCC(=O)O)NC(=O)C(C)(C)NC(=O)[C@@H](N)Cc1ccc(O)cc1)[C@@H](C)O)[C@@H](C)O)[C@@H](C)CC)C(=O)N[C@@H](CC(=O)O)C(=O)N[C@@H](CCCCN)C(=O)N[C@@H](CCCNC(=N)N)C(=O)N[C@@H](C)C(=O)N[C@@H](C)C(=O)N[C@@H](CCC(N)=O)C(=O)N[C@@H](CC(=O)O)C(=O)N[C@@H](Cc1ccccc1)C(=O)N[C@H](C(=O)N[C@@H](CCC(=O)O)C(=O)N[C@@H](Cc1c[nH]c2ccccc12)C(=O)N[C@@H](CC(C)C)C(=O)N[C@@H](CCCCN)C(=O)N[C@@H](C)C(=O)NCC(=O)NCC(=O)N1CCC[C@H]1C(=O)N[C@@H](CO)C(=O)N[C@@H](CO)C(=O)NCC(=O)N[C@@H](C)C(=O)N1CCC[C@H]1C(=O)N1CCC[C@H]1C(=O)N1CCC[C@H]1C(=O)N[C@@H](CO)C(N)=O)[C@@H](C)CC)C(=O)O) [SEQ ID NO: 31],6.5,6,3080
Y[Aib]QGTFTSDLSIQK([γGlu-Palmitoyl])DSRAA[Aib]DFIEWLKAGGPSSGAPPPS-NH2 (N-terminus assumed; SMILES CCCCCCCCCCCCCCCC(=O)N[C@@H](CCC(=O)NCCCC[C@H](NC(=O)[C@H](CCC(N)=O)NC(=O)[C@@H](NC(=O)[C@H](CO)NC(=O)[C@H](CC(C)C)NC(=O)[C@H](CC(=O)O)NC(=O)[C@H](CO)NC(=O)[C@@H](NC(=O)[C@H](Cc1ccccc1)NC(=O)[C@@H](NC(=O)CNC(=O)[C@H](CCC(N)=O)NC(=O)C(C)(C)NC(=O)[C@@H](N)Cc1ccc(O)cc1)[C@@H](C)O)[C@@H](C)O)[C@@H](C)CC)C(=O)N[C@@H](CC(=O)O)C(=O)N[C@@H](CO)C(=O)N[C@@H](CCCNC(=N)N)C(=O)N[C@@H](C)C(=O)N[C@@H](C)C(=O)NC(C)(C)C(=O)N[C@@H](CC(=O)O)C(=O)N[C@@H](Cc1ccccc1)C(=O)N[C@H](C(=O)N[C@@H](CCC(=O)O)C(=O)N[C@@H](Cc1c[nH]c2ccccc12)C(=O)N[C@@H](CC(C)C)C(=O)N[C@@H](CCCCN)C(=O)N[C@@H](C)C(=O)NCC(=O)NCC(=O)N1CCC[C@H]1C(=O)N[C@@H](CO)C(=O)N[C@@H](CO)C(=O)NCC(=O)N[C@@H](C)C(=O)N1CCC[C@H]1C(=O)N1CCC[C@H]1C(=O)N1CCC[C@H]1C(=O)N[C@@H](CO)C(N)=O)[C@@H](C)CC)C(=O)O) [SEQ ID NO: 30],22.1,12,226
Y[Aib]EGTFTSDLSIQK([γGlu-Palmitoyl])EKRAA[Aib]DFIEWLKNTGPSSGAPPPS-NH2 (N-terminus assumed; SMILES CCCCCCCCCCCCCCCC(=O)N[C@@H](CCC(=O)NCCCC[C@H](NC(=O)[C@H](CCC(N)=O)NC(=O)[C@@H](NC(=O)[C@H](CO)NC(=O)[C@H](CC(C)C)NC(=O)[C@H](CC(=O)O)NC(=O)[C@H](CO)NC(=O)[C@@H](NC(=O)[C@H](Cc1ccccc1)NC(=O)[C@@H](NC(=O)CNC(=O)[C@H](CCC(=O)O)NC(=O)C(C)(C)NC(=O)[C@@H](N)Cc1ccc(O)cc1)[C@@H](C)O)[C@@H](C)O)[C@@H](C)CC)C(=O)N[C@@H](CCC(=O)O)C(=O)N[C@@H](CCCCN)C(=O)N[C@@H](CCCNC(=N)N)C(=O)N[C@@H](C)C(=O)N[C@@H](C)C(=O)NC(C)(C)C(=O)N[C@@H](CC(=O)O)C(=O)N[C@@H](Cc1ccccc1)C(=O)N[C@H](C(=O)N[C@@H](CCC(=O)O)C(=O)N[C@@H](Cc1c[nH]c2ccccc12)C(=O)N[C@@H](CC(C)C)C(=O)N[C@@H](CCCCN)C(=O)N[C@@H](CC(N)=O)C(=O)N[C@H](C(=O)NCC(=O)N1CCC[C@H]1C(=O)N[C@@H](CO)C(=O)N[C@@H](CO)C(=O)NCC(=O)N[C@@H](C)C(=O)N1CCC[C@H]1C(=O)N1CCC[C@H]1C(=O)N1CCC[C@H]1C(=O)N[C@@H](CO)C(N)=O)[C@@H](C)O)[C@@H](C)CC)C(=O)O) [SEQ ID NO: 27],6.7,4,6390
